Experimental data taken from the supplement of paper PMC10126150.
± gives the standard deviation of the averaged measurements.

Test system: ATP
Test: switch fluorescence ratio, 500 uM ATP over buffer (Cy3 cluster intensity, sum of 5 cycles each) (fold (ratio)); higher = stronger signal-on switching upon ATP binding; sequences stand for … in TCGTCGGCAGCGTCAGATGTGTATAAGAGACAGTTTTTTTTTTTTTTTTTTTTTTTTT…TC
Details: aptamer strand: ATP DNA aptamer (quencher-CACCTGGGGGAGTATTGCGGAGGAAGG + anchor), 100 nM annealed; ATP concentration: 500 uM
Method in brief: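 Values give the fluorescence ratio for each switch-domain sequence, averaged from per-cluster ratios of summed target-cycle to summed buffer-cycle Cy3 intensity. The Cy3-labelled switching-strand clusters sat on a modified Illumina MiSeq flow-cell, were annealed to 100 nM quencher-labelled ATP aptamer, and were imaged in selection buffer, then after 15 min with 500 uM ATP at 22 °C. Five cycles ran with NaOH stripping and re-annealing between them, and clusters outside 100-1000 RFU were excluded.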
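Note: ATP exposure 15 min at 22 °C before imaging.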

Sequence | switch fluorescence ratio
TCTAATACGG | 1.04 ± 0.02
CTGTGGAAAG | 0.991 ± 0.018
GGCAGGGACT | 1 ± 0.033
AGGGTCTTAG | 1.02 ± 0.049
ACATTATTGT | 0.982 ± 0.011
AAGGGGAGTG | 1.02 ± 0.11
TATAATCCCT | 1.02 ± 0.083
TAAGGGTGTA | 0.9934 ± 0.004
CAGGGGGCTT | 1.03 ± 0.054
AACAAGTATG | 1 ± 0.044
GCATAAGAAA | 1.03 ± 0.018
GGAGGGGATT | 0.982 ± 0.03
TTGAGTTGTT | 1.02 ± 0.082
TTCCGGGACG | 1.027 ± 0.0033
TGTCGACTGT | 0.987 ± 0.042
TCTATTTTTT | 1.01 ± 0.014
TTGGGCCTGG | 0.9806 ± 0.0061
TTCTCGTCTT | 1.04 ± 0.036
ATTGTGGGAG | 0.972 ± 0.017
TCCTGATTGA | 0.984 ± 0.063
GCGATTATCT | 1.002 ± 0.0064
TTAGAGAAGT | 0.987 ± 0.019
TTGCTCTTTG | 1.0058 ± 0.00073

Sequence | switch fluorescence ratio
CGGTTGATCT | 1.09 ± 0.13
GTTTTTTTGT | 0.966 ± 0.001
GAGGGGTTAG | 0.978 ± 0.014
TCGGTTGTGT | 1.08 ± 0.078
GCCGTAACGG | 0.982 ± 0.014
CCGTAGCGTT | 6.12 ± 1.5
AAATGAGTAG | 1.02 ± 0.013
TTAAAGGATC | 0.968 ± 0.028
CTATGCAGTG | 1.03 ± 0.024
CGCTTTAATA | 1.07 ± 0.019
AGATAGGAGT | 1.02 ± 0.019
AGTTGAGGGC | 0.98 ± 0.047
CGGAAGGGCC | 0.995 ± 0.03
ACGGCCTTAT | 0.991 ± 0.033
TGTTGTTACC | 1.04 ± 0.022
CAGGACCCGG | 1.071 ± 0.0084
TATGATTGCG | 1.01 ± 0.04
GGCATAGATT | 0.976 ± 0.066
CCTTGTTATC | 1.1 ± 0.1
TATGGTATGC | 1.0138 ± 0.00069
GGGCTATGTA | 0.993 ± 0.0095
TAAGTATTCG | 0.9972 ± 0.0086
GTTTGATCGG | 0.97 ± 0.013

Sequence | switch fluorescence ratio
TTGTGTTGTA | 1 ± 0.042
GAGGTGAGAC | 1.06 ± 0.13
GCTACCACTC | 1.089 ± 0.01
ACATTGAGCG | 1.03 ± 0.028
AGCAAATGGT | 1.07 ± 0.051
GCGTTCAGGT | 1.01 ± 0.02
TCAAAATTTT | 1.01 ± 0.012
TTTGCGAGGT | 0.972 ± 0.026
AGTTGGATGT | 0.977 ± 0.012
CGCTGTTTTT | 1.02 ± 0.024
TTGAAATCGA | 1.01 ± 0.03
TTTTCAATTT | 0.9758 ± 0.0064
TGTGTTCCAA | 1.002 ± 0.0047
ACATTTGCCC | 1.069 ± 0.003
GTTGATGTAT | 0.987 ± 0.021
AACGGGACCT | 1.33 ± 0.081
TTTGGATGAA | 1.05 ± 0.013
AACAAACGGT | 1.36 ± 0.057
TCACGAATTT | 1 ± 0.014
TTTGTCAGTA | 0.989 ± 0.018
ACCAAGCTTT | 1.04 ± 0.016
TTTATAAAAA | 0.998 ± 0.026
TGATGTTAGT | 1.01 ± 0.024

Sequence | switch fluorescence ratio
TTATAAATTT | 1.29 ± 0.45
TTTCGGAATT | 1.35 ± 0.48
TTGGCATGTC | 1.06 ± 0.041
AGCAGGGGGG | 1.06 ± 0.067
TTGCAGGTTT | 1.11 ± 0.18
TGGCGGTTGC | 0.955 ± 0.013
CAGTATTTTG | 0.9952 ± 0.0031
GCTACACTGA | 1.04 ± 0.023
CAGGGGCGAC | 1.02 ± 0.049
GGAAAGCGTG | 0.993 ± 0.084
TCGCAGGGGG | 0.992 ± 0.043
CAGGGTAGTG | 1.01 ± 0.045
CGGGTGGCTG | 0.995 ± 0.035
AAAAATATGA | 1.01 ± 0.053
ATAGGATCGC | 0.99 ± 0.039
TTTATTTGGA | 1.018 ± 0.0012
GGCTGGGGCA | 0.979 ± 0.021
AAGGCATGCG | 1.037 ± 0.005
CGGCGGGTGG | 1.02 ± 0.041
ATTTGCGTTC | 1.01 ± 0.056
GGGCATTTAG | 1.03 ± 0.092
AGGGAAATTT | 0.99 ± 0.014
TGCGAGTATC | 1.02 ± 0.018

Sequence | switch fluorescence ratio
AGTTGGTAGC | 1.01 ± 0.011
TAGCTTCAC | 1.142 ± 0.0084
CACTGAAGTT | 1.026 ± 0.00036
CGTTCGGAGG | 0.991 ± 0.037
ACCAATTTTT | 1.03 ± 0.026
TGTGATGGGT | 0.996 ± 0.04
TTTTACTCCG | 3.1 ± 1.9
GGAGGAAATT | 1.01 ± 0.082
GGGTTTTGGA | 0.998 ± 0.039
TCATAGGTCA | 0.972 ± 0.024
AGGGAATATT | 1.01 ± 0.027
TCATAAGTGA | 0.9848 ± 0.0083
ATTGTAGTGC | 0.97 ± 0.021
GGGGGAACCA | 0.9993 ± 0.0072
AGAAGGGCTT | 1 ± 0.026
GTGTCCTGTA | 0.998 ± 0.072
TTGGAGTGCT | 1.04 ± 0.045
AAGGGGGGGT | 0.999 ± 0.03
AGCGATTTAT | 1.03 ± 0.0079
GGTGTGCGTC | 1 ± 0.026
AATGGTTTAT | 0.9489 ± 0.0065
GGTTCCCACT | 0.9919 ± 0.0045
CGTGAGCTAA | 1.41 ± 0.19

Sequence | switch fluorescence ratio
CCTATCGAAT | 1.97 ± 1.1
TAGGGGGAAA | 1.01 ± 0.024
CCATGATGGT | 1.014 ± 0.0084
AAGAGTAGAT | 1.01 ± 0.017
TTCAGACTAT | 1.01 ± 0.027
CAGTACGCGT | 1.04 ± 0.017
TGGGACGTTT | 0.934 ± 0.046
TATGCAGACT | 0.956 ± 0.092
TGATGGATTG | 0.99 ± 0.028
CGTTTGGGAG | 0.9739 ± 0.0061
GTGGGGCAAA | 1 ± 0.043
TTTGTGGAGT | 1 ± 0.021
TCACGGTAGG | 0.999 ± 0.012
ATAACCCCGA | 1.088 ± 0.0075
AAAATATAGA | 0.9798 ± 0.0025
GGGGGGACGT | 1.02 ± 0.035
TGGGAGGAGT | 1 ± 0.048
AGCAACATTA | 1.06 ± 0.025
ATTAGGGGGG | 0.998 ± 0.012
TATTGCATTA | 1.03 ± 0.013
CTTATTAAGC | 1.05 ± 0.011
AGGGTTAGTC | 1.03 ± 0.058
ACTCGGTCTG | 1.02 ± 0.027

Sequence | switch fluorescence ratio
AAGGTCGCGT | 0.9906 ± 0.0039
AAGATTTTGT | 0.995 ± 0.014
GGTGTTATAT | 1.02 ± 0.04
AGACAGCGAG | 1.015 ± 0.0021
TTTTACGGGA | 1.26 ± 0.41
CCTCGAGACT | 1.43 ± 0.032
ATTGGTGATT | 0.974 ± 0.038
TGCGAATAGG | 1.0088 ± 0.00022
TTACTAATTT | 1.05 ± 0.036
TCTGTTATCA | 1 ± 0.029
GGCAGTCCTT | 1.005 ± 0.0044
CGCGTGGCGG | 0.999 ± 0.024
GTTAACTGAG | 1.03 ± 0.041
AGCTTAAGGA | 1.03 ± 0.035
TTTTGGAAGG | 1.02 ± 0.0083
GCCTCCAGTT | 1.15 ± 0.025
GTGTAACAGA | 1 ± 0.013
GGTTTCGGAA | 1 ± 0.034
ACAGCGCTTT | 1.03 ± 0.025
